Results: the DeepSol protein solubility set

Assay: soluble on expression in E. coli; label from the status in PepcDB or PDB records

Sequence | soluble on expression in E. coli
MPIVRWGKTIKQELSEGWSRVIQHELTGKLDGHHGGFHETGDESMSDDLSDQARSTAVKQLKALGLSTYAARTFVALISLGEGTAQDVSEVADVPRTRVYDAADELRDRGLVDVKQSSPRRYWAISTETAGRHFEQEYDHRVTVLTNALDRLASANRSTEQQGVWTVTGRDTVTGRVVDFISSADDEVVYMTAEELLTDEIAESLSTASDRGVTIRLAEMSQSVEAQLERDVPDAQLFESAWEWSDTPAGRLLMIDQQKTLVSVLVGANGGYSLEPSDETAIWGTGQSNSLVVVLKALFAWQLANNRE | not soluble
MPKRRYNPSANEEEKIPIVEKLYRENQESDFLGGGFCDDDDEVQERREQISEMRQKREEAAHNLIQAPENCEKCDKGLMDSWLWERYNCAVCDACRDDKGEHKLLARTEVKNTYLLKDCDLDLRKPKLRYWAKKNPHNPRYGDMKLYLKCQIETRVLEVHGSWEDLELKKELREQSKEVRSEKRFEKKLKDLRQQIRGTSGVKVDFGRPHTHEFGKETHVEEDTWRRTCITCEYEEVFEKL | not soluble
MPLHQVVEPAFYIVVVLDLVSGRLNGHDKDTLGLAQQLANRNSGGGAVVAIAFGELKDDSLNKAGVDRLIHINDEQYDQYNPEQRCNDLQGIIGELDPQHILLPDSINGGGDLGRRLAAALQQRPACGVWKLNDDTVVCR | not soluble
MPLHVVEQPAFLVAVVPDMVGGRLSSHDKDLLGLARKLAGNDGAVLAVVFGEHKESAFDSAGVDRLLHLSGGEYDGYAPEQRILALRNLENQLAPRHWLFPDSRNGGGELGRRLAAALGERPAGRVWQVEDGRCIGRAGAGREDIQRALPRLLLAAAECAEPVSETRHEVRELHMAEQVARNLPRIEDLGPVAVDPA | not soluble
MPLPIAAPPILASTLTLLLATTPTAAALTPEQHAAALVAQMTRQEKIAQTMNAAPAIPRLGIPAYDWWSEGLHGIARNGYATVFPQAIGLAASWNTDLLQHVGTVTSTEARAKFNLTGGPGKDHPRYAGLTLWSPNINIFRDPRWGRGMETYGEDPYLTSQLAVSFIRGLQGDTPDHPRTIATPKHFAVHSGPEQGRHSFDVDVSAYDLEATYTPAFRAAIVDGHAGSVMCAYNALHGTPACASDWLLNTRLRNDWGFNGFVVSDCDAIEDMTRFHFFRQDNASASAAALKSGNDLNCGNTYRDLNQAIARGDIDESTLDQALIRLFTARQRLGTLQPREHDPYAAIGIK | not soluble
MPLRQKRLYWPLFFRDDLIMEKNKLQLEYVFDRVSTRSLWRYLSTPDGLSEWFAYDVRLEDNGDFYFQWDKNSGEKASVLEQREGERIRFQWHREQDQNACFEFVIHHSELTGGKSLEVIDYIAPEEVADMEHFWNNLISRLRLSLGAPE | not soluble
MPLSWPPEQFAFALEQMPLTENNRRILQAFLDAPEQTLTAHSLAAAANVAGGWSAANLRIGELSRKFAPVLGSLPDAGDGDPHWWRYIASGRWDGGRFYWTLRPQLKDALLTLGWQSSESLDNEAEGVSAEEARTFVEGATRQIFVNAYERNAGARAACIAHFGTVCRVCETDLVAIYGEVARGYIQVHHLRSLAEVGRQYEVNPLTDLIPVCPNCHAMLHQRRPAYTPEELRAMLGRGQHLEHHHHHH | not soluble
MPLTGEYEPSPSKWAADQAELMESTDGAKGTTLGGRPVVLLTTRGAKSGKIRKTPLMRVEHDGTYAIVASLGGAPKNPVWYYNVKAEPHVELRDGSATQDMVAREVTGDERATWWDRAVAAFPDYAEYQKKTDREIPVFVLEPA | not soluble
MPNFFKFHTVIERHWQKPYPVLSFLLKPLSGLFAKIAAKWRADFLSGKRQSEKLSVPVVVVGNIHAGGTGKTPIAAALVSGLQEKGVKVGIISRGYGRKSKAVYVLNAASRAEDAGDEPLLLFRKTGAPTAVGSSRVEAGRALLAAHPELELIVADDGLQHYALQRDVEIAVFPAADTGRTDLDLLPNGNLREPLSRLESVDAVVVGGRAADGFMPSEHLFGSRIEAGAVYRLNRPSEKLDISTLSGKRVAAVAGIARPQRFFDTLTHMGIRLDQTVALPDHADIFNRDLPPADVVLVTEKDAVKFSDGICTDNVWVLPVCAIIEPDLAEFVLERLEGVPKAVLEHHHHHH | not soluble
MPNFWALPPEINSTRIYLGPGSGPILAAAQGWNALASELEKTKVGLQSALDTLLESYRGQSSQALIQQTLPYVQWLTTTAEHAHKTAIQLTAAANAYEQARAAMVPPAMVRANRVQTTVLKAINWFGQFSTRIADKEADYEQMWFQDALVMENYWEAVQEAIQSTSHFEDPPEMADDYDEAWMLNTVFDYHNENAKEEVIHLVPDVNKERGPIELVTKVDKEGTIRLVYDGEPTFSYKEHPKF | not soluble
MPNTADQVDPLLASLSHFVDHTDLLAEHTMNAVEWEAVEVLMPRILRGKSKEDVKQLLLAEIDGMSKKRLDAVLAGETLEESSSSEDEEEQVIGSAGESEKSESPEIPEPEAKMEEQAVEAAEASEASDDGREDGEIRDDQGNTTSTPPDPGSPKSPEKGEAEQLDTDEEIDRLLEEDLEDFL | soluble
MPPATNNSREEKEEETTDLSAGKGDCGIKAAATIYVNCELLGGAKKRKKKVYIIPKKNNISQRKSSSPSPKYFKIDENGKISRLPTGIPTVSIQREAFMTQPTTLRKMSQHPCR | soluble
MPPDEIEIEPVRQSSDKMLYCEAESPPTVEKVKPARENSETDLEIEDDEKFFTTGQKELYLEACKLMGVVPVSYFIRNMEESYVNLNHHGLGPRGTKAIAIALVSNMAVTKLELEDNCIMEEGVLSLVEMLQENYYLQEMNISNNHLGLEGARIISDFFERNSSSIWSLELSGNDFKEDSAALLCQALSTNYQIKKLDLSHNQFSDVGGEHLGQMLAINVGLTSLDLSWNNFHTRGAVALCNGLRGNVTLTKLDLSMNGFGNEVALALGEVLRLNRCLVYLDIGGNDIGNEGASKISKGLESNESLRVLKLFLNPINMDGAILLILAIKRNPKSRMEELDISNVLVSEQFMKTLDGVYAVHPQLDVVFKAVQGLSPKKTIFLLTNPMKLIQSYADQHKITIVDFFKSLNPTGTMKMSVDEFQKVMIEQNKVPLNQYQVREVIKKLDEKTGMVNFSFLNTMKP | soluble
MPPFKRTKIVATLGPATDDKEVIRALAEAGADVFRLNFSHGAPEDHRRRVGWVREVAEELGRTLAVLQDLQGPKIRVGRFREGQVLLRPGQRFVLTAEPVEGDEHRVSVSYKGLPEDVSPGQILLLDDGRIRLKVLEVRSPEILTEVEVGGVLSNNKGINIPGADLSIPALSEKDIQDLALGAELGVDWVAVSFVRTRDDLLLARHYLSRYGSKARLMAKIEKPSAVARFEEILEEADGIMVARGDLGVEMPLEEVPIVQKRLILRCIAAGKPVITATQMLESMVQNPSPTRAEASDVANAIFDGTDAVMLSAETAAGAYPVEAVAMMARIAKAVESSPEFLQKLNVLRPAPTPTTQDAIAQAADDVVEAVGARAIVVFTATGGSARRIARTRPQVPILALTPNPEVRNQLALVWGVYPHLAPDPQDTDDMVRIALREVKALGLAQVGDRVVIAAGVPFGVRGTTNLIRVERVG | soluble
MPPIPEPEIDPVLKELLYAYSVISRARRYAGMAGVPLPLSLTEINEYLATHPVLIERDEFEAVIFALDDQYFQEQCV | not soluble
MPPLECDVLVIGSGASGLAAAVTAAHHGLTVVVAEKASQLGGTSAWSGGWLWIPRNPLAIAEGIVEADDAPERYLRAQTHTRELDPRQRAFLRHGPEMVAFFEQHTAVQFQCGSRMPDMREGDGSARGGRSLCALPYDGRRLGPWLHKLRPPLDIVSLAGMGIAGGADMAAFFNATRSPKAALHVGKRLLRHGRDLLLHRRGLHLVNGNALVARLLRSALDRGVTLLTEKAASRLLLCEERVNGALFADGQAIYARRGVVLACGGFPHDRQRISQLMPHAPDGDQHYSAAPRENSGDGLRLGEQAGGRVSAAGAHGGAWAPVSQVPRRNGHFGHFPHLIDRAKPGFIAVRRDGRRFVNEADCYHDFMNALFAATPQAEQPEAWLICDHAAQRRYGIGWAKPFPFPTRFYQRSGYLHSGATLAQLAQRCGIDAEQLQRTVEGFNHHAAQGEDPTFLRGASAYNRAQGDPQQVPNPSLRPLLKGPFHAVKLLPGSLGTFAGLDTDASARVLDHAGQPIPGLFAVGNDMHSVMGGYYPSGGITLGPGMTFGYLAGRALSAGCADHLEHHHHHH | not soluble
MPPPGIPPPFPPMGLPPMSQRPPAIPPMPPGILPPMLPPMGAPPPLTQIPGMVPPMMPGMLMPAVPVTAATAPGADTASSAVAGTGPPRALWSEHVAPDGRIYYYNADDKQSVWEKPSVLKSKAELLLSQCPWKEYKSDTGKPYYYNNQSKESRWTRPKDLDDLEVLVKQEAAGKQQQQLPQTLQPQPPQPQPDPPPVPPGPTPVPTGLLEPEPGGSEDCDVLEATQPLEQGFLQQLEEGPSSSGQHQPQQEEEESKPEPERSGLSWSNREKAKQAFKELLRDKAVPSNASWEQAMKMVVTDPRYSALPKLSEKKQAFNAYKAQREKEEKEEARLRAKEAKQTLQHFLEQHERMTSTTRYRRAEQTFGELEVWAVVPERDRKEVYDDVLFFLAKKEKEQAKQLRRRNIQALKSILDGMSSVNFQTTWSQAQQYLMDNPSFAQDHQLQNMDKEDALICFEEHIRALEREEEEERERARLRERRQQRKNREAFQTFLDELHETGQLHSMSTWMELYPAVSTDVRFANMLGQPGSTPLDLFKFYVEELKARFHDEKKIIKDILKVNTAFEDFAHVISFDKRAAALDAGNIKLTFNSLLEKAEAREREREKEEARRMRRREAAFRSMLRQAVPALELGTAWEEVRERFVCDSAFEQITLESERIRLFREFLQVLEQTECQHLHTKGRKHGRKGKKHHHKRSHSPSGSESEEEELPPPSLRPPKRRRRNPSESGSEPSSSLDSVESGGAALGGRGSPSSHLLGADHGLRKAKKPKKKTKKRRHKSNSPESETDPEEKAGKESDEKEQEQDKDRELQQAELPNRSPGFGIKKEKTGWDTSESELSEGELERRRRTLLQQLDDHQ | soluble
MPPPTNQFKHDNIPLQTQGCEINVLCVRNPRARRIKLSVDERGVRLILPPCADLDAGTRFLLEQRAWIETQMARYASGTAATIPLRRGETTALPLRDQQLPLHWHESRYTRLELDAHGLQFYITTHTNDNTLRHTLREFYEVQARVDISDWLRKYLPGLPRPPTRVRLKPMSSQWGSLATAGHMALDLALVLGRPSAFEYVVVHELCHLIQANHSPAFWREVECRFPLWREERDYFHLKGRILKAQLRRLLQTELEHHHHHH | not soluble
MPPQKYHCNVCAQDITRSIHIRCVECVDFDLCIPCFTSGASLGTHHPSHPYRIIETNSYPIFDENWGADEELLLIDACETLGLGNWADIADYVGNARTKEECRDHYLKTYIESDCYPLASVELPGPVDRIAFAARKRARIEAFQPPPIIPQKPLASTPQCHEIQGYMPGRLEFDQEYMNEAELPIKDMNFDDDLHESAKHEMQLKLTMLNIYNSRLTRRAVRKQTIFNHNLLDYRRLQANEKRMSKEERNLLNKTKAFARLLTGPDYQKFVNSYHEQITLKKQISDLQEWRQMGLTTLEQGHKYERDKTQKFLLSKASASYDKQLRHVKSFNQTTSAPFQVRDIQKIVPRKPATPTMFSASADRQLLSEDEQALCSKLQIFPKPFLALKFALISASLTSKKPFQKTDAVNLFKHLDANKVEQVYDFFHNARWIGAPT | soluble
MPPYFSPKSEAPICGYCQLTFSQTGSMTRHRDRLHTKNHTCLICVSNCEGAPILGESIKKHLQHAHGYVDVQSCSCCHWIFENKIQLRTHLDAMKATGQPGDEVVLAKGTFAPGTLSQAAILQSKAYSANRQQKCQQSLKVDSGGFNDLSETQLKFILDNYSQIVGELESPNPKISGCRKRKCGMTIQHVLRDDDFKKIELC | not soluble
MPQFTTARRARHRAEQMFALVADVEKYPQFLPMCEALSIRSRKERDGKTLLIADMTVGYKLIRETFTSQVLLKPDENIIDVKYIDGPFRYLDNRWTFRPTDGGAQCDVEFFIDYEFKSRTLGLLMGTMFDLAFKKFSEAFEKRADQIYGLGELEHHHHHH | soluble
